Results taken from PMC6800875, “Codon harmonization reduces amino acid misincorporation in bacterially expressed P. falciparum proteins and improves their immunogenicity” (AMB Express, 2019).

B1: histidine tag-free CH-PfCelTOS (natural protein)
chain: GTFRGNNGHNSSSSLYNGSQFIEQLNNSFTSAFLESQSMNKIGDDLAETISNELVSVLQKNSPTFLESSFDIKSEVKKHAKSMLKELIKVGLPSFENLVAENVKPPKVDPATYGIIVPVLTSLFNKVETAVGAKVSDEIWNYNSPDVSESEESLSDDFFD
notes: two non-native amino acid residues introduced by cloning; the chain is 161 residues long, so one more residue stands before them; begins at F R G and holds 158 PfCelTOS residues; natural residue numbering; Made from the CH-PfCelTOS clone by replacing the His-tag linker; this is surmised; also called His-tag free PfCelTOS; Histidine tag-free PfCelTOS; source: E. coli, purified (Q-Sepharose twice, …)
B2: N-PfCelTOS (P. falciparum cell-traversal protein for ookinetes and sporozoites, expressed from the native codon sequence) (natural protein)
chain: FRGNNGHNSSSSLYNGSQFIEQLNNSFTSAFLESQSMNKIGDDLAETISNELVSVLQKNSPTFLESSFDIKSEVKKHAKSMLKELIKVGLPSFENLVAENVKPPKVDPATYGIIVPVLTSLFNKVETAVGAKVSDEIWNYNSPDVSESEESLSDDFFD
notes: begins at F R G and holds 158 PfCelTOS residues; 174 residues in all with the 16 amino acid linker; natural residue numbering; also called N-protein; source: E. coli B834 (DE3), purified (Ni-NTA, Q-Sepharose); not shown: His6 (within a 16 amino acid linker), N-terminal, kept
B3: CH-PfCelTOS (P. falciparum cell-traversal protein for ookinetes and sporozoites, expressed from the codon harmonized sequence) (natural protein, UniProt Q8I5P1 25-182, looked up)
chain: B2 chain
notes: begins at F R G and holds 158 PfCelTOS residues; 174 residues in all with the 16 amino acid linker; natural residue numbering; also called CH-protein; source: E. coli B834 (DE3), purified (Ni-NTA, Q-Sepharose); not shown: His6 (within a 16 amino acid linker), N-terminal, kept

Experiments:
[1] = molecular target: the molecule itself; test: SEC; calibrated Superdex G-200 column, PBS pH 7.4, 0.5 mL/min, 4 °C; three standards (66, 29, 12.4 kDa); oligomer size estimated from the elution volume
[2] = molecular target: the molecule itself; test: SDS-PAGE with western blot (band that resists denaturation); purified protein, untreated or incubated at 37 °C or 65 °C for 1, 4 and 24 h, on 4-20% Tris-glycine SDS-PAGE; blots probed with anti-His mAb and mAb 3D11.D4

Protein	stoichiometry N [1]	stoichiometry N [2]
B1	~4	–
B2	~3	~2
B3	~4	~2
